# From the nanobody polyreactivity screen of Harvey et al. (2022)
# Test: yeast display, Sf9 membrane polyspecificity reagent, FACS + sequencing; frameworks hold sequencing errors
# Procedure, shortened: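 Galactose-induced (36–48 hours) yeast carrying a synthetic nanobody display library were exposed to 10% biotinylated, detergent-solubilized Sf9 membrane reagent at 4 °C for 1 hour. FACS followed streptavidin microbead enrichment, using low and high (top ~1%) gates for expression (anti-HA) and reagent binding (streptavidin). Colony PCR, MiSeq 2 × 250 sequencing and CDR-length filtering followed. Labels for polyreactivity reflect the gate of origin.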
sequence,measurement,value
QVQLVESGGGLVQAGGSLRLSSAASGITFFHYAMGWYRQEPGKERELVATISWRAGSTYADSVKGRFTISRDNAKKTVYLQMNSLKPEDTAVYYCNAVWTYHSGSGGYLFDYWGLGTQVTVSS,polyreactivity (PSR sort gate),low polyreactivity
QVQLVESGGGLVQAGGSLRLSCAASGFTFGYYAMGWYRQAPGKERELVAAINWSGGRTYYADSVKGRFTISRDNAKNTVYLQMNSLKPEDTAVYYCAASSRTKLYYWGQGTQVTVSS,polyreactivity (PSR sort gate),high polyreactivity
QVQLVESGGGLVQAGGSLRLSCAASGFTFGGYAMGWYRQAPGNERELVAAISKSGGRTYYADSVKGRFTISRDNAKNTVYLQMNSLKPEDTAVYYCAASTIWHYDSWGQGTQVTVSS,polyreactivity (PSR sort gate),high polyreactivity
QVQLVESGGGLVQAGGSLRLSCAASGSIFWLYAMGWYRQAPGKERELVAAITWSGGRTYYADSVKGRFTISRDNAKNTVYLQMNSLKPEDTAVYYCARRQWPWYSNPARGGKYDYWGQGTQVTVSS,polyreactivity (PSR sort gate),low polyreactivity
QVQLVESGGGLVQAGGSLRLSCAASGLIFSAYAMGWYRQAPGKERELVAGISRRGSTYYADSVKGRFTISRDNAKNTVYLEMNCLKPEDTAVYYFAAFFRVRFRASGYDYWGQGTQVTVSS,polyreactivity (PSR sort gate),high polyreactivity
QVQLVESGGGLVQAGGSLPLSCAASGNIFVTYDMGWYRQAPGKERELVASISWNGGSTNYADSVRGLFTISRDNAKNTVYLQMNSLKPEDTAVYYCAAEYWTSYADYRYDYWGQGTQVTVSS,polyreactivity (PSR sort gate),low polyreactivity
QVQLVESGGGLVQAGGSLSLSCAASGSIFGVNAMGWYRQAPGKERELVAAITLRSGSTYYADSVKGRFTISRDNAKNTVYIQMNSLKPEDTAVYYSATYSWGVDRPNYNYWGQGTQVTVSS,polyreactivity (PSR sort gate),low polyreactivity
QVQLVESGGGLVQAGGSLRLSCAASGSIFLVYAMGWYRQAPGKERELVAAISSDGDDTYYADSVKGRFTISRDNAKNTVYLQMNSLKPEDTAVYYCAAESYTYYADYGYGYWGQGTQVTVSS,polyreactivity (PSR sort gate),high polyreactivity
QVQLVESGGGLVQAGGSLRLSCAASRITFYSYAMGWYRQAPGKERELVAAITFRGTSTYYADSVKGRFTISRDNAKNTVYLQMNSQKPEDTAVYYCAAYSGQARGYDYWGQGTQVTVSS,polyreactivity (PSR sort gate),high polyreactivity
QVQLVESGGGLVQAGGSLRLSCAASRSTFEGYAMGLYRQAPGKERELVAAITVSVGSTYYADSVKGRFTISRDNAKNTVYLQMNSLKPEDTAVYYCAADYDYQYRYYYWGQGTQVTVSS,polyreactivity (PSR sort gate),low polyreactivity
QVQLVESGGGLVQAGGSLRLSCAASGSIFWKNVMGSYRQAPGKERELVAGISQNGGSTTYADSVKGRFTISRDNAKNTVYLQMNSLKPEDTAVYYCAAKRYGPFKYGYWGQGTQVTVSS,polyreactivity (PSR sort gate),high polyreactivity
QVQLEESGGGLVQAGGSLRLSCAASGFTFTPNAMGWYRQAPGKERELVAAINWSGGRTYYADSVKGRFTISRDNAKNTVYLQMNSLKPEDTAVYYCNVLKGRSYYPGMDYWGQGTQVTVSS,polyreactivity (PSR sort gate),high polyreactivity
QVQLVESGGGLVQAGGSLRLSCAASGFTFGANAMGWYRQAPGKERELVAAITKRGGNTYYADSVKGRFTISRDNAKNTVYLQMNSLKPEDTAVYYCARDYTHGYDYWGQGTQVTVSS,polyreactivity (PSR sort gate),high polyreactivity
QVQLVESGGGLVQAGGSLRLSCAASGSTFVRNAMGWYRQAPGKERELVAGISTGDNTYYADSVKGRFTISRDNAKNTVYLQMNSLKPEDTAVYYCNADVYTEYDYWGQGTQVTVSS,polyreactivity (PSR sort gate),low polyreactivity
QVQLVESCGCLVQAGGSLRLSCAASGRTFFHYDMGWYRQAPGKDRELEAGISSGGRTKYADSVKGRFTISRDNAKNTVYLQMNSLNPEDTAAYYCAASYIVWLTRGAPRKRFDYWGQGSQVTVSS,polyreactivity (PSR sort gate),high polyreactivity
QVQLVESGGGLVQAGGSLRLSCAASGITLYRYAMGWYRPAPGKERELVADISSGGGTTYYADSVKGRFTISRDNAKNTVSLQMNSLKPEDTALYYCAADYGFRYPLYDYWGQGTQVTVSS,polyreactivity (PSR sort gate),low polyreactivity
QVQLVESGGCLVQAGGSLRLSCAASGGTFHRYAMGGYRQAPGKERELVAAISGSGASTYYADSVKGRFTISRDNAKNTVYLQMNSLKPEDTAVYYCNAYSYPYWYRYYYWGQGTQVTVSS,polyreactivity (PSR sort gate),high polyreactivity
QVQLVESGGGLVQAGGSLRLSCAASGSIFGAYAMGWYRQAPGKERELVAVISRSGGRTYYADSVKGRFTISRDNAKNTVYLQMNSLKPEDTAVYYCAASYPVPPYGMDYWGQGTQVTVSS,polyreactivity (PSR sort gate),high polyreactivity
QVQLVESGGGLVQAGGSLRLSCADSGLIIARNAMVWYRHAPGTERELVAAITRGGSTYYADSVKGSFTISRDNAKNTVYLLMNSLKPEDTAVYYCNARFRRYYYYGMDYWGQGTQVTVSS,polyreactivity (PSR sort gate),high polyreactivity
QVQLVESGGGLVQAGGILRLSCAASGSTFAGYAMGWYRQAPGKERELVATITYSGASTYYADSVKGRFTISRDNAKITVYLQMNSLKPEDTAVYYCGKKASYWWGYEYWGQGTQVTVSS,polyreactivity (PSR sort gate),low polyreactivity
QVQLVESGRVLVQAGGSLRLSCAASGITFISYAMGWYRPAPGKQSELVAVISKSGGRTYYADSVKGSFTISRDNANNTVYLQMNSLKPEDTAVYYCAADVYLSRYEKYGYWGQGTQVTVSS,polyreactivity (PSR sort gate),high polyreactivity
QVQLVESGGGLVQAGGSLRLSCAASGIIFYRYTMGWYRQAPGKERELVAAITSGGDTNYADSVKGRFTISRDNAKNTVYLQMNSLKPEDTAVYYCNADWWWYLYLYDYWGQGTQVTVSS,polyreactivity (PSR sort gate),high polyreactivity
